Experimental data taken from doi:10.1101/324103 (bioRxiv, 2018).

Target: the molecule itself
Test: SEC-MALS + AUC

B1: ammonium transporter AmtB from Escherichia coli (natural protein)
chain: APAVADKADNAFMMICTALVLFMTIPGIALFYGGLIRGKNVLSMLTQVTVTFALVCILWVVYGYSLAFGEGNNFFGNINWLMLKNIELTAVMGSIYQYIHVAFQGSFACITVGLIVGALAERIRFSAVLIFVVVWLTLSYIPIAHMVWGGGLLASHGALDFAGGTVVHINAAIAGLVGAYLIGKRVGFGKEAFKPHNLPMVFTGTAILYIGWFGFNAGSAGTANEIAALAFVNTVVATAAAILGWIFGEWALRGKPSLLGACSGAIAGLVGVTPACGYIGVGGALIIGVVAGLAGLWGVTMLKRLLRVDDPCDVFGVHGVCGIVGCIMTGIFAASSLGGVGFAEGVTMGHQLLVQLESIAITIVWSGVVAFIGYKLADLTVGLRV
- stoichiometry N: 3
